Test results reported in paper PMC5815190.

Molecular target: human toll-like receptor 5 (hTLR5) on HEK-Blue-hTLR5 cells (human) (UniProt O60602)
UniProt O60602, sequence (O60602 21-858): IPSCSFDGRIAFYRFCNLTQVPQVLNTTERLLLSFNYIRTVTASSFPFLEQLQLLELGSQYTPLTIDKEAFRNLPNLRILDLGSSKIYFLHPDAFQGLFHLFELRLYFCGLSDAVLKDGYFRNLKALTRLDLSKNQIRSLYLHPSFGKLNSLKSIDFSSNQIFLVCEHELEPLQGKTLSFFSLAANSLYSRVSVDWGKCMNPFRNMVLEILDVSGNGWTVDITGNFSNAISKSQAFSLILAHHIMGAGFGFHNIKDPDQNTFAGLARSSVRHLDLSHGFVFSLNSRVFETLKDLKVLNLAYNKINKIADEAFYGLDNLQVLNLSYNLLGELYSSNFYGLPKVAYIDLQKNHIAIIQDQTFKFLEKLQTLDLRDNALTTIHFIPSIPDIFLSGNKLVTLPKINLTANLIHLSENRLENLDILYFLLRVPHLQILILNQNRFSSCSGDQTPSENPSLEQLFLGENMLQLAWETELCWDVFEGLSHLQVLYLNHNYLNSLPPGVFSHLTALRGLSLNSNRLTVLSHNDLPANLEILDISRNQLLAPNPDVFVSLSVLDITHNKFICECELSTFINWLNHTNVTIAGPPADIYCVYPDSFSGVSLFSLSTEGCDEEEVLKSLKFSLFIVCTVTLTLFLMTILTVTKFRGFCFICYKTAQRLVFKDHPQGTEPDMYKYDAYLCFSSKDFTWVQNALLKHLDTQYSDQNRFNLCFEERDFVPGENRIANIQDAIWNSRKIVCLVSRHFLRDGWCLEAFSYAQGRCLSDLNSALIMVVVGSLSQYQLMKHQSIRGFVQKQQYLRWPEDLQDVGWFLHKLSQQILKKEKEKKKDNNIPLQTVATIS

Substance: Lawsonia intracellularis putative flagellin LI0570 (LFliC) (natural protein)
- IL-8 mRNA level (RT-PCR, 2^-ddCt) in HEK-Blue-hTLR5 cells treated with 10 and 100 ng/mL LFliC for 24 h: 590 fold
